Experimental data: PMC10397247

What was measured:
Assay in all cases: two-hybrid library CCNG1;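 further: natural log of median RNA to DNA barcode read ratio; higher means stronger binding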
[1] = molecular target: T1, 4H3638-bA
T1 chain: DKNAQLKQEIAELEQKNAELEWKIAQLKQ

[2] = molecular target: T2, 4H570-bA
T2 chain: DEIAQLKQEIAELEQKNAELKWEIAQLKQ

[3] = molecular target: T3, 4H584-bA
T3 chain: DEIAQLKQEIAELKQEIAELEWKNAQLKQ

[4] = molecular target: T4, 4H1985-bA
T4 chain: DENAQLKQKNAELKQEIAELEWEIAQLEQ

[5] = molecular target: T5, 4H1393-bA
T5 chain: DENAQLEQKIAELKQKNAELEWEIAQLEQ

[6] = molecular target: T6, 4H3129-bA
T6 chain: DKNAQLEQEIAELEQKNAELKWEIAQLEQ

[7] = molecular target: T7, 4H906-bA
T7 chain: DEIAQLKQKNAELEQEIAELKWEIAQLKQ

[8] = molecular target: T8, 4H850-bA
T8 chain: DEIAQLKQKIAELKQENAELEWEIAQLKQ

[9] = molecular target: T9, 4H3172-bA
T9 chain: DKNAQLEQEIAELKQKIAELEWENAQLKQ

[10] = molecular target: T10, 4H3817-bA
T10 chain: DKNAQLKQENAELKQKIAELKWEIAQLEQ

[11] = molecular target: T11, 4H1804-bA
T11 chain: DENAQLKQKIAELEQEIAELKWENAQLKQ

[12] = molecular target: T12, 4H3974-bA
T12 chain: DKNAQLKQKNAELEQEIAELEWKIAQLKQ

[13] = molecular target: T13, 4H1449-bA
T13 chain: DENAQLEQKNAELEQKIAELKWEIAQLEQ

[14] = molecular target: T14, 4H1359-bA
T14 chain: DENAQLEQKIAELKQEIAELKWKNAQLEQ

[15] = molecular target: T15, 4H3631-bA
T15 chain: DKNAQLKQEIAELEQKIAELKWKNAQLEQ

[16] = molecular target: T16, 4H1710-bA
T16 chain: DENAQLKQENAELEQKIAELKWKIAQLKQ

[17] = molecular target: T17, 4H1629-bA
T17 chain: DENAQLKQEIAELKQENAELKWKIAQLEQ

[18] = molecular target: T18, 4H3414-bA
T18 chain: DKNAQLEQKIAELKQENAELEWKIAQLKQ

[19] = molecular target: T19, 4H619-bA
T19 chain: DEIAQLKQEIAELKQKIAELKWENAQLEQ

[20] = molecular target: T20, 4H2588-bH
T20 chain: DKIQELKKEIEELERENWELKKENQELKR

[21] = molecular target: T21, 4H348-bH
T21 chain: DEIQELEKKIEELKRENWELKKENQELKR

[22] = molecular target: T22, 4H2134-bH
T22 chain: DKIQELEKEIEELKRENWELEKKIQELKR

[23] = molecular target: T23, 4H3057-bH
T23 chain: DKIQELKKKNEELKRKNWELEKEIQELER

[24] = molecular target: T24, 4H2473-bH
T24 chain: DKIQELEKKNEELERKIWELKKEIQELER

[25] = molecular target: T25, 4H492-bH
T25 chain: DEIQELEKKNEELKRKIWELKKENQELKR

[26] = molecular target: T26, 4H741-bH
T26 chain: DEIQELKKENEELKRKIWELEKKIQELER

[27] = molecular target: T27, 4H2915-bH
T27 chain: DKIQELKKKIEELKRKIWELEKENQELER

[28] = molecular target: T28, 4H2692-bH
T28 chain: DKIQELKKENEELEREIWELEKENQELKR

[29] = molecular target: T29, 4H2223-bH
T29 chain: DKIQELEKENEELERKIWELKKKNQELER

[30] = molecular target: T30, 4H2839-bH
T30 chain: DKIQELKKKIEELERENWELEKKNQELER

[31] = molecular target: T31, 4H182-bH
T31 chain: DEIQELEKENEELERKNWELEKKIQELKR

[32] = molecular target: T32, 4H3277-bH
T32 chain: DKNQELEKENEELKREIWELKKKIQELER

[33] = molecular target: T33, 4H319-bH
T33 chain: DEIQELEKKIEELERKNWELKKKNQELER

[34] = molecular target: T34, 4H2503-bH
T34 chain: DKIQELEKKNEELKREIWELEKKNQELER

[35] = molecular target: T35, 4H2717-bH
T35 chain: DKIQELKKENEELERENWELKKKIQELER

[36] = molecular target: T36, 4H2438-bH
T36 chain: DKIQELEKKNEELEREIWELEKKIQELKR

[37] = molecular target: T37, 4H40-bH
T37 chain: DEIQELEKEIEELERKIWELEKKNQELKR

[38] = molecular target: T38, 4H2143-bH
T38 chain: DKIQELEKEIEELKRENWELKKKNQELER

[39] = molecular target: T39, 4H477-bH
T39 chain: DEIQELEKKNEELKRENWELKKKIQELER

[40] = molecular target: T40, 4H918-bN
T40 chain: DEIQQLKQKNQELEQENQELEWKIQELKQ

[41] = molecular target: T41, 4H4073-bN
T41 chain: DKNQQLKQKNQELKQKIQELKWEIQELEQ

[42] = molecular target: T42, 4H118-bN
T42 chain: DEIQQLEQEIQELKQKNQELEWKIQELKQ

[43] = molecular target: T43, 4H953-bN
T43 chain: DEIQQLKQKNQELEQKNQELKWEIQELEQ

[44] = molecular target: T44, 4H3427-bN
T44 chain: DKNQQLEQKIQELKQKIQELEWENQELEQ

[45] = molecular target: T45, 4H170-bN
T45 chain: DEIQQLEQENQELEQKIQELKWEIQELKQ

[46] = molecular target: T46, 4H346-bN
T46 chain: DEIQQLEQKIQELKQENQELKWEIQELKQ

[47] = molecular target: T47, 4H3926-bN
T47 chain: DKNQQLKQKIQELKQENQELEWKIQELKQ

[48] = molecular target: T48, 4H797-bN
T48 chain: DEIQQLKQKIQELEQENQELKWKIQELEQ

[49] = molecular target: T49, 4H3010-bN
T49 chain: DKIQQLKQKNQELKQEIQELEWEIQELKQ

[50] = molecular target: T50, 4H1158-bN
T50 chain: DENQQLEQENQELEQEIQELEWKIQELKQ

[51] = molecular target: T51, 4H754-bN
T51 chain: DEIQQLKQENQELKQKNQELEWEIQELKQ

[52] = molecular target: T52, 4H2627-bN
T52 chain: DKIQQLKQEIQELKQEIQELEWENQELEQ

[53] = molecular target: T53, 4H968-bN
T53 chain: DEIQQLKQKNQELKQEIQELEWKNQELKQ

[54] = molecular target: T54, 4H112-bN
T54 chain: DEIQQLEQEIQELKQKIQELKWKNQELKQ

[55] = molecular target: T55, 4H683-bN
T55 chain: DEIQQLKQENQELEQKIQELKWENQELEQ

[56] = molecular target: T56, 4H457-bN
T56 chain: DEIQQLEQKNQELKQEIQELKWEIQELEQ

[57] = molecular target: T57, 4H2586-bN
T57 chain: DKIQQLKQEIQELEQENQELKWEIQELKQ

[58] = molecular target: T58, 4H855-bN
T58 chain: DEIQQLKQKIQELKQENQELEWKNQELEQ

[59] = molecular target: T59, 4H575-bN
T59 chain: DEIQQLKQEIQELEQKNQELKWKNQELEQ

[60] = molecular target: T60, 4H2702-bN
T60 chain: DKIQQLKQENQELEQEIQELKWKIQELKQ

[61] = molecular target: T61, 4H2673-bN
T61 chain: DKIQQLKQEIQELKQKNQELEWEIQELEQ

[62] = molecular target: T62, 4H3112-bN
T62 chain: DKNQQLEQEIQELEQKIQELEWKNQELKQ

[63] = molecular target: T63, 4H780-bN
T63 chain: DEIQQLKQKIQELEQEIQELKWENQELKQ

[64] = molecular target: T64, 4H1831-bN
T64 chain: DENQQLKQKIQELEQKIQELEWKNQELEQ

B1: 4H1359-bA (peptide)
chain: DENAQLEQKIAELKQEIAELKWKNAQLEQ
- interaction score [1]: -0.492
- interaction score [2]: -0.609
- interaction score [3]: -0.341
- interaction score [4]: 0.768
- interaction score [5]: -0.644
- interaction score [6]: -0.77
- interaction score [7]: -0.601
- interaction score [8]: -0.751
- interaction score [9]: -0.287
- interaction score [10]: -0.524
- interaction score [11]: -0.948
- interaction score [12]: -0.0513
- interaction score [13]: -0.804
- interaction score [14]: 0.162
- interaction score [15]: 1.41
- interaction score [16]: -0.54
- interaction score [17]: -0.732
- interaction score [18]: -0.665
- interaction score [19]: -0.844

B2: 4H182-bH (peptide)
chain: DEIQELEKENEELERKNWELEKKIQELKR
- interaction score [20]: -0.809
- interaction score [21]: -0.493
- interaction score [22]: 0.462
- interaction score [23]: 0.511
- interaction score [24]: 0.11
- interaction score [25]: -0.775
- interaction score [26]: -0.207
- interaction score [27]: 0.801
- interaction score [28]: 1.16
- interaction score [29]: 0.341
- interaction score [30]: -0.281
- interaction score [31]: 0.517
- interaction score [32]: -0.523
- interaction score [33]: 0.27
- interaction score [34]: 0.0255
- interaction score [35]: -0.508
- interaction score [36]: -0.311
- interaction score [37]: -0.335
- interaction score [38]: 0.14
- interaction score [39]: -0.331

B3: 4H112-bN (peptide)
chain: DEIQQLEQEIQELKQKIQELKWKNQELKQ
- interaction score [40]: -0.456
- interaction score [41]: 1.25
- interaction score [42]: -0.511
- interaction score [43]: -0.805
- interaction score [44]: 1.06
- interaction score [45]: -0.245
- interaction score [46]: -0.486
- interaction score [47]: -1.67
- interaction score [48]: -1.01
- interaction score [49]: 1.25
- interaction score [50]: 0.877
- interaction score [51]: -0.189
- interaction score [52]: 1.22
- interaction score [53]: 0.452
- interaction score [54]: 1.46
- interaction score [55]: -0.968
- interaction score [56]: 0.723
- interaction score [57]: -1.21
- interaction score [58]: -0.582
- interaction score [59]: -0.471
- interaction score [60]: 0.834
- interaction score [61]: 0.592
- interaction score [62]: 1.44
- interaction score [63]: 0.755
- interaction score [64]: 0.348
